Numbering of substitutions follows the chain as printed. In names and notes the source's numbering stands.
B1: mAb2_SL50K (antibody, V domains shown)
VH: EVQLVESGGGLVQPGGSLRLSCAASGFTISDYWIHWVRQAPGKGLEWVAGITPAGGYTYYADSVKGRFTISADTSKNTAYLQMNSLRAEDTAVYYCARFVFFLPYAMDYWGQGTLVTVSS
VL: DIQMTQSPSSLSASVGDRVTITCRASQDVSTAVAWYQQKPGKAPKLLIYKASFLYSGVPSRFSGSGSGTDFTLTISSLQPEDFATYYCQQSYTTPPTFGQGTKVEIK
notes: as the heavy chain variable region of m1 (PDB 2FJF); constant regions of an IgG1 isotype, already in the expression vector; as the light chain variable region of m1 (PDB 2FJF), with the stated change; light chain constant region from the expression vector; IgG1; also called S50K in the light chain; source: CHO K1, transiently transfected, purified (protein A)
B2: mAb2_SL52R_FH101P (antibody, V domains shown)
VH: B1 VH with F101P
VL: B1 VL with K50S, S52R
notes: as the heavy chain variable region of m1 (PDB 2FJF), with the stated change; constant regions of an IgG1 isotype, already in the expression vector; as the light chain variable region of m1 (PDB 2FJF), with the stated change; light chain constant region from the expression vector; IgG1; also called mAb2 FH101P SL52R; source: CHO K1, transiently transfected, purified (protein A)
B3: mAb2_VH100R (antibody, V domains shown)
VH: B1 VH with V100R
VL: B1 VL with K50S
notes: as the heavy chain variable region of m1 (PDB 2FJF), with the stated change; constant regions of an IgG1 isotype, already in the expression vector; as the light chain variable region of m1 (PDB 2FJF); light chain constant region from the expression vector; IgG1; source: CHO K1, transiently transfected, purified (protein A)
B4: mAb2_SL50K_SH21R_SH85R_FH101P (antibody, V domains shown)
VH: B1 VH with S21R, S85R, F101P
VL: B1 VL
notes: as the heavy chain variable region of m1 (PDB 2FJF), with the stated changes; constant regions of an IgG1 isotype, already in the expression vector; as the light chain variable region of m1 (PDB 2FJF), with the stated change; light chain constant region from the expression vector; IgG1; also called mAb2 FH101P SL50K SH21R SH85R; source: CHO K1, transiently transfected, purified (protein A)
B5: mAb2_SL52R_SH21R_SH85R_FH101P (antibody, V domains shown)
VH: B1 VH with S21R, S85R, F101P
VL: B1 VL with K50S, S52R
notes: as the heavy chain variable region of m1 (PDB 2FJF), with the stated changes; constant regions of an IgG1 isotype, already in the expression vector; as the light chain variable region of m1 (PDB 2FJF), with the stated change; light chain constant region from the expression vector; IgG1; also called mAb2 FH101P SL52R SH21R SH85R; source: CHO K1, transiently transfected, purified (protein A)
B6: mAb2_FH101P (antibody, V domains shown)
VH: B1 VH with F101P
VL: B1 VL with K50S
notes: as for B3
B7: mAb2_SL50K_SH21R_SH85R (antibody, V domains shown)
VH: B1 VH with S21R, S85R
VL: B1 VL
notes: as the heavy chain variable region of m1 (PDB 2FJF), with the stated changes; constant regions of an IgG1 isotype, already in the expression vector; as the light chain variable region of m1 (PDB 2FJF), with the stated change; light chain constant region from the expression vector; IgG1; also called Variant 7; source: CHO K1, transiently transfected, purified (protein A)
B8: mAb2_SL50K_FH101P (antibody, V domains shown)
VH: B1 VH with F101P
VL: B1 VL
notes: as the heavy chain variable region of m1 (PDB 2FJF), with the stated change; constant regions of an IgG1 isotype, already in the expression vector; as the light chain variable region of m1 (PDB 2FJF), with the stated change; light chain constant region from the expression vector; IgG1; also called mAb2 FH101P SL50K; variant 8; source: CHO K1, transiently transfected, purified (protein A)
B9: mAb2_SL50D (antibody, V domains shown)
VH: B1 VH
VL: B1 VL with K50D
notes: as the heavy chain variable region of m1 (PDB 2FJF); constant regions of an IgG1 isotype, already in the expression vector; as the light chain variable region of m1 (PDB 2FJF), with the stated change; light chain constant region from the expression vector; IgG1; source: CHO K1, transiently transfected, purified (protein A)

target: T1, recombinant human Vascular Endothelial Growth Factor a (Homo sapiens, UniProt P15692-4, fluorescently labeled with Alexa-647); assay: MST; Alexa-647-labelled rhVEGFa constant at 1 nM in solution, mAb2 WT or variants in varying concentrations; 295 K; 25 mM sodium citrate pH 6.0, 125 mM NaCl, 0.05% Tween 20; triplicates; NanoTemper Monolith NT.115; conditions: both partners purified
T1 construct: human VEGFa, UniProt ID P15692, aa 27-191 as printed; the isoform is my reading of the limits 27-191; also called rhVEGFa; recombinant human VEGFa; source: recombinant
T1 sequence (P15692 other isoform, or with tags, fused parts or gaps): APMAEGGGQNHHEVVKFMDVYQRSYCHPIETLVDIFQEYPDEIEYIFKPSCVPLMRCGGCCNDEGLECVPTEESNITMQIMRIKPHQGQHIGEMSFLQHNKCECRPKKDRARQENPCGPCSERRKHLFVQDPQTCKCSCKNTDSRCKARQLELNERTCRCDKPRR

Question: Which Kd does the source give for B1 here?
Answer: 8.3 ± 1.4 nM

Question: Does B2 bind?
Answer: no binding

Question: Does B3 bind?
Answer: no binding

Question: Does B4 bind?
Answer: no binding

Question: Does B5 bind?
Answer: no binding

Question: Does B6 bind?
Answer: no binding

Question: How did the Kd turn out when B7 was run?
Answer: 57.1 ± 6.2 nM

Question: Does B8 bind?
Answer: no binding

Question: Which Kd does the source give for B9 here?
Answer: 4.4 ± 1.3 nM
